Test results published in the nanobody polyreactivity screen of Harvey et al. (2022).

Experiment: yeast display, Sf9 membrane polyspecificity reagent, FACS + sequencing; frameworks hold sequencing errors
In short: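 Synthetic nanobody libraries on Saccharomyces cerevisiae BJ5465 were galactose-induced for 36–48 hours, stained 1 hour at 4 °C with 10% biotinylated, detergent-solubilized Sf9 membrane reagent and enriched on streptavidin microbeads. FACS then separated cells into low and high (top ~1%) gates by anti-HA (expression) and streptavidin (reagent binding) fluorescence. Genes were colony-PCR amplified, MiSeq 2 × 250 sequenced and CDR-length filtered. A clone's polyreactivity label is that of its gate of origin.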

Row | Sequence | polyreactivity (PSR sort gate)
1 | QVQLVESGGGLVQAGGSLRLSCAASGFTFHYYAMGWYRQAPGKEWELVAAITKSGGRTSYADSVKGRFTISRDNAKNTVYLQMNSLKPEDTAVYYCAAARYRARIGNDYWGQGTQVTVSS | low polyreactivity
2 | QVQLVESGGGLVQAGGSLRLSCAASGFTFIDNTMGWYRQAPGKERELVAAISSDGRTNYAVSVKGRFTISRDNAKNTVYLQMNSLKAEDTAFYYCATEDNYWYVTGDLYHSAFYYWGQGTQVTVSS | low polyreactivity
3 | QVQLVESGGGLVQAGGSLRLSCAASGFTFIPNAMGWYRQAPGKERELVADITWSGGTTYYADSVKGRFTISRDNAKNTVYLQMNSLKPEDTAVYYCNADYLFYAFDYWGQGTQVTVSS | low polyreactivity
4 | QVQLVESGGGLVQAGGSLRLSCAASGFTFIQYAMGWYRPAPGKERELVAAMTWSGGRTYYADSVKGRFTISRDNAKNTVYLHMNSLKPEDTAVYYCAKPFNIWGQGTKVTVSS | high polyreactivity
5 | QVQLVESGGGLVQAGGSLRLSCAASGFTFIRNAMGWYRQAPGKERELVAAISWRGVRTYADSVKGRFTISRDNAKNTVYLQMHSQKPEDTAVYYCAARDAHYYPTMGYWGQGTQVTVSS | high polyreactivity
6 | QVQLVESGGGLVQAGGSLRLSCAASGFTFIRYAMGWDRQAPGKERELVAAISVSGGRTYYADSVKGRFTISRDNAKNTVYLQMNSLKPEDTAVYYCARRPSYYQGDYWGQGTQVTVSS | high polyreactivity
7 | QVQLVESGGGLVQAGGSLRLSCAASGFTFIRYAMGWYRPAPGKERELVATITRRGGSTYYADSVKGRFSISRDNAKNTVYLQMNCLKPEDTAVYYCNRDYVTYGKYYYWGQGTQVTVSS | high polyreactivity
8 | QVQLVESGGGLVQAGGSLRLSCAASGFTFIRYAMGWYRQAPGKARELVAAIRGTGTSTYYADSVKGRFTISRDNAKNTVYLQMNSLKPEDTAVYYCNKVAGRSPYTRYDYWGQGTQVTVSS | low polyreactivity
9 | QVQLVESGGGLVQAGGSLRLSCAASGFTFISNAMGWYRQAPGKERELVAAISGRGGRTYYADSVKGRFTISRDNAKNTVYLQMNSLKPEDTAVYYCNAVFRKLHYDYWGQGTQVTVSS | high polyreactivity
10 | QVQLVESGGGLVQAGGSLRLSCAASGFTFIVNPMGWYRQAPGKERELVAAISWNGGSTYYADSVKGRFTISRDNAKNTVYLQMNSLKPEDTAVYYCAVLYRSEYVWGQGTQVTVSS | low polyreactivity
11 | QVQLVESGGGLVQAGGSLRLSCAASGFTFIYNAMGWYRQAPGKERELVAAISYRTSRTYYADSVKGRFTISRDNAKNTVYLQMNSLKPEDTAVYYCAKGYGRHGLDYWGQGTQVTVSS | high polyreactivity
12 | QVQLVESGGGLVQAGGSLRLSCAASGFTFIYNAMGWYRQAPGKERELVAAITGGGGSTYYADSVKGRFTISRDNAKYTVYLQMNSLKPEDTAVYYCNVYYPQSGVTYDYWGQGTLVTVSS | low polyreactivity
13 | QVQLVESGGGLVQAGGSLRLSCAASGFTFIYYAMGWYRQAPGKERELVAAISTSGGRTYYADSVKGRFTISRDNAKNTVYLQMNCLKPEYTAVYYCAADGHYRYTSRYGLIVRYDYWGQGTQVTVSS | high polyreactivity
14 | QVQLVESGGGLVQAGGSLRLSCAASGFTFKDYAMGWYRQAPGKERELVAANSRSGGSTYYADSVKGRFTNSRDSAKNTVYLQMNSLKPEDTAVYYCAAAYVRYRDPYGYWGQGTQVTVSS | high polyreactivity
15 | QVQLVESGGGLVQAGGSLRLSCAASGFTFKFYAMGWYRQAPGKERELVAAISARGGITYYADSVKGRFTISRDNAKNTVYLQMNSLKPEDTAVYYCAAGVFGHYAFVEFDYWGQGTQVTVSS | high polyreactivity
16 | QVQLVESGGGLVQAGGSLRLSCAASGFTFKGYAMGWYRQAPGKERELVAGITSGGRTYYADSVKGRFTISRDNAKNTVYLQMNSLKPEDTAVYYCAAVHYVAYYGYDYWGQGSQVTVSS | high polyreactivity
17 | QVQLVESGGGLVQAGGSLRLSCAASGFTFKHYAMGWYRQATGKERELVATITRGGSTNYADSVKGRFTISRDNAKNTVYLQMNSLKPEDSAVYYCAAADYVRYPFTRGYIYQGYDYWGQGTQVTVSS | low polyreactivity
18 | QVQLVESGGGLVQAGGSLRLSCAASGFTFKLNAMGWYRPAPGKERELVAAISWGGGTTYYADSVKGRFTISRDNAKNTVYLQMNSLKPEDTAVYYCAADGTGTYDYWGQGTQVTVSS | low polyreactivity
19 | QVQLVESGGGLVQAGGSLRLSCAASGFTFKLNAMGWYRQAPGKERELVATISSSGGSTFYADSVKGRFTISRDNAKNTVYLQMNSLKPEDTAVYYCAADSGYGPYYYWGQGTQVTVSS | high polyreactivity
20 | QVQLVESGGGLVQAGGSLRLSCAASGFTFKLYAMGWYRQAPGNEREWVAAIRRGGTTNYADSVKGRFTISRDTAKNTVYLQMNSLKPEDTAVYYCAADGWYPGVYYPYTEFDYWGQGTQVTVSS | high polyreactivity
21 | QVQLVESGGGLVQAGGSLRLSCAASGFTFKYNAMGWYRQAPGKERELVASISSGSTNYADSVKGRFTISRDNAKNTVYLQMNSLKPEDTAVYYCAASVSRGKRFRYGYVFKMDYWGQGTQVTVSS | low polyreactivity
22 | QVQLVESGGGLVQAGGSLRLSCAASGFTFKYYAMGWYRQAPGKEREFVAAISRSGGSTTYADSVKGRFTISRDNAKNTVYLQMNSLKPEDSAVYYCAVAYYTAYTPRDGEYWGQGTQVTVSS | high polyreactivity

Row | Sequence | polyreactivity (PSR sort gate)
23 | QVQLVESGGGLVQAGGSLRLSCAASGFTFKYYAMGWYRQAPGKERELVAAIRRSAGSTNYADSVKGRFTISRDNAKNTVYLQMNSLKPEDTAVYYCNTVGTRQPMDYWGQGTLVTVSS | high polyreactivity
24 | QVQLVESGGGLVQAGGSLRLSCAASGFTFKYYAMGWYRQAPGKERELVAAISRGGSTYYADSVKGRFTFSRDNAKNTVYLQMNSLKPEDTAVYYCAARYVRVGYDYWGQGTQVTVSS | high polyreactivity
25 | QVQLVESGGGLVQAGGSLRLSCAASGFTFKYYAMGWYRQAPGKERELVAAITSGGSTYADSVKGRFTISRDNAKITVYLQMNSLKPEDTAVYYCAASIDSGKWLGRRYDYWGQGTQVTVSS | low polyreactivity
26 | QVQLVESGGGLVQAGGSLRLSCAASGFTFKYYTMGWYRQAPGKERELVAVISRTGSTNYADSVKGRFTISRDNAKNTVYLQMNSLKPEDTAVYYFITARGKYAFFDVDYWGQGTQVTVTS | high polyreactivity
27 | QVQLVESGGGLVQAGGSLRLSCAASGFTFLGYDMGWYRQAPGKERELVATISSGGRTYYADSVKGRFTISRDNAKNTVYLQMNSMKPEDTAVYYFAAPRFRRLDFDFWGQGTQVTVSS | low polyreactivity
28 | QVQLVESGGGLVQAGGSLRLSCAASGFTFLKNAMVWYRQAPGKERELVAAITGSGGSTYYADSVKGRFTISRDNAKNTVYLQMNSLKPEDTAVYYCNVRRGLRAYEYWGQGTQVTVSS | high polyreactivity
29 | QVQLVESGGGLVQAGGSLRLSCAASGFTFLKYAIGWYRQAPGKERELVAAISFSTGRTYYADSVKGRFTISRDNAKNTVYLQMNSLKPEDPAVYYGAAGYWPGYSLTYRGGFWGQGTQVTVSS | high polyreactivity
30 | QVQLVESGGGLVQAGGSLRLSCAASGFTFLSNAMGWYRQAPGKERELVATINSGGSTNYADSVKGRFTISRDNAKNTVYLQMNSLKPEDTAVYYCAAKLWRYYHYDYWGQGTQVTVSS | low polyreactivity
31 | QVQLVESGGGLVQAGGSLRLSCAASGFTFLTYAMGWYRQAPGKERELVAAINNSGGRTYYADSVKGRFTISRDNAKNTVYLQMNSLKPEDTAVYYCAADYLRGKHRYGYWGQGTQVTVSS | high polyreactivity
32 | QVQLVESGGGLVQAGGSLRLSCAASGFTFLYNAMGWYRQAPGKERELVASIRTGTGTYYADSVKGRFTISRDNAKNTVYLQMNSLKPEDTAVYYCAAENFYPYTYYASDYWGQGTQVTVSS | high polyreactivity
33 | QVQLVESGGGLVQAGGSLRLSCAASGFTFNANAMGWYRQAPGKERELVADISLSGGRTYYADSVKGRFTISRDNAKNTVYLQMNSLKPEDTAVYYCAASPDGSFRRFSRVVSGDYWGQGTQVTVSS | high polyreactivity
34 | QVQLVESGGGLVQAGGSLRLSCAASGFTFNANAMGWYRQAPGKERELVAVNTRSGGRTYYADSVKGRFTISRDNAKNTVYLQMNSLKPEDTAVYYCAKEGPSRVYQGTDSASDYWGQGTQVTVSS | high polyreactivity
35 | QVQLVESGGGLVQAGGSLRLSCAASGFTFNDYAMGWYRQAPGKERELVAAIDWSGGRTYYADSVKGRFTISRDNAKNTVYLQMNSLKPEDTAVYYCATEYYDGYFPTFDYDYWGQGTQVTVSS | low polyreactivity
36 | QVQLVESGGGLVQAGGSLRLSCAASGFTFNDYAMGWYRQAPGKERELVAAISKSGSRTYYADSVKGRFTISRDNAMNTVYLQMNSLKPEDTAVYYCNALPSYYGTYDYWGQGTQVTVSS | high polyreactivity
37 | QVQLVESGGGLVQAGGSLRLSCAASGFTFNFYAMGWYRQAPGKERELVASITSSGARTYYADSVKGRFTISRDNAKNSVYLQMNSLKPEDTAVYYCAARVYRYSASRAYDYWGQGTQVTVSS | high polyreactivity
38 | QVQLVESGGGLVQAGGSLRLSCAASGFTFNGYAMGWYRQAPGKERELVAGITRRGGITYYADSVKGRFTISRDNAKNTVYLQMNCLKPEDTAVYYCARDYIGHALIHHASLYYYWGQGTQVTVSS | high polyreactivity
39 | QVQLVESGGGLVQAGGSLRLSCAASGFTFNLYDMGWYRQAPGKERELVAAINWSGGTYYADSVKGRFTISRDNAKNTVYLQMNSLKPEDPAVYYCAADFPYTPWSYHHHVWSPDFDYWGQGTQVTVSS | low polyreactivity
40 | QVQLVESGGGLVQAGGSLRLSCAASGFTFNPNAMGWYRQAPGKERELVAPITRSGGSTYYADSVKGRFTISRDNAKNTVYLQMNSLKPEDTAVYYCNAPFRVSTTRRRYPGIDSHYYWGQGTQVTVSS | high polyreactivity
41 | QVQLVESGGGLVQAGGSLRLSCAASGFTFNQNAMGWYRQAPGKERELVAAISASGGSTYYADSVKGRFTISRDNAKNTVYLQMNSLKPEDTAVYYCAARGTYRYTKYNYWGQGTQVTVSS | high polyreactivity
42 | QVQLVESGGGLVQAGGSLRLSCAASGFTFNRNAMGWYRQAPGKERELVAAISWSGGSTYYADSVKGRFTISRDNAKYTVYLQMHSLKPEDTAVYYCAQGYRRVYGPFYYWGQGTQVTVSS | low polyreactivity
43 | QVQLVESGGGLVQAGGSLRLSCAASGFTFNRYAMGWYRQAPGQERELVAAISRSGGSTSYADSVKGRFTISRDNAKKTVYLPMHSLKPEDTAVYYCAADRVWYLYYDYNYWGQGTQVTVSS | high polyreactivity
